Blank lines part the entries; values can stand above or below the substance they belong to.
How the values were obtained:
[1] = biological target: DmMBD2/3 coiled-coil domain (amino acids 309–339), thioredoxin fusion (D. melanogaster); assay: ITC; fusion peptides left uncleaved; 50 mM Hepes pH 7.4, 150 mM NaCl, 298 K; MicroCal Auto-iTC200, 20–24 injections; HsMBD2 (1.8 mM), EmGATAD2A/B (2.74 mM), DmGATAD2A/B (2.5 mM) injected into HsGATAD2A (100 μM), EmMBD2/3 (270 μM), DmMBD2/3 (250 μM); one-site binding model
[2] = test system: EmMBD2/3a coiled-coil domain (amino acids 324–354), thioredoxin fusion; assay: AUC; sedimentation velocity, 40,000 rpm, 293 K, 20 mM Tris pH 8.0, 150 mM NaCl; thioredoxin fusions left uncleaved; each peptide in isolation and a 100 μM mixture
[3] = biological target: EmMBD2/3a coiled-coil domain (amino acids 324–354), thioredoxin fusion (E. muelleri); assay: ITC; fusion peptides left uncleaved; 50 mM Hepes pH 7.4, 150 mM NaCl, 298 K; MicroCal Auto-iTC200, 20–24 injections; HsMBD2 (1.8 mM), EmGATAD2A/B (2.74 mM), DmGATAD2A/B (2.5 mM) injected into HsGATAD2A (100 μM), EmMBD2/3 (270 μM), DmMBD2/3 (250 μM); one-site binding model
[4] = biological target: HsGATAD2A coiled-coil domain, uncleaved fusion peptide (human) (UniProt Q86YP4); assay: as above
[5] = test system: EmMBD2/3 MBD (Ephydatia muelleri); assay: SPR; settings: SPR: 10 mM HEPES pH 7.4, 50 mM NaCl, 3 mM MgCl2, 0.1 mM EDTA, 1 mM DTT, 0.05% polysorbate 20, temperature not stated, NMR conditions not in material
[6] = biological target: EmGATAD2A/B coiled-coil domain (amino acids 58–100), thioredoxin fusion (E. muelleri); assay: ITC; fusion peptides left uncleaved; 50 mM Hepes pH 7.4, 150 mM NaCl, 298 K; MicroCal Auto-iTC200, 20–24 injections; HsMBD2 (1.8 mM), EmGATAD2A/B (2.74 mM), DmGATAD2A/B (2.5 mM) injected into HsGATAD2A (100 μM), EmMBD2/3 (270 μM), DmMBD2/3 (250 μM); one-site binding model

Sequence of DmMBD2/3 coiled-coil domain (amino acids 309–339), thioredoxin fusion (D. melanogaster) (main, as listed by the source): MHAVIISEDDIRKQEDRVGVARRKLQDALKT
Sequence of HsGATAD2A coiled-coil domain, uncleaved fusion peptide (human) (Q86YP4 137-178): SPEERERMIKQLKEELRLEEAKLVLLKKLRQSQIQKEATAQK
Sequence of HsMBD2 coiled-coil domain, uncleaved fusion peptide (Q9UBB5 360-393): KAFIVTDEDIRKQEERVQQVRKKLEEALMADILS

- Kd [1]: 7.4 µM
- dH [1]: -27.6 kcal/mol
- stoichiometry N [1]: 1
Substance: DmGATAD2A/B coiled-coil domain (amino acids 183–223), thioredoxin fusion (domain or fragment)

Substance: EmGATAD2A/B coiled-coil domain (amino acids 58–100), thioredoxin fusion
- percent of heterodimeric species in a 100 μM mixture [2]: heterodimeric (45.1 kDa, 58.1%)

- Kd [3]: 9.2 µM
- dH [3]: -9.8 kcal/mol
- stoichiometry N [3]: 0.8
Substance: EmGATAD2A/B coiled-coil domain (amino acids 58–100), thioredoxin fusion (domain or fragment)

- Kd [4]: 0.38 µM
- dH [4]: -8.99 kcal/mol
- stoichiometry N [4]: 1.3
Substance: EmMBD2/3a coiled-coil domain (amino acids 324–354), thioredoxin fusion (domain or fragment)

Substance: GAGGCGCTCGGCGGCAG (double strand) [CpG(x3) 17 bp, 3'-biotin]
- Kd [5]: 65 µM

Substance: GAGGCGCTCGGCGGCAG (double strand) [mCpG 17 bp, 3'-biotin]
- Kd ([5]; 5-methyl-C at C9 of strand 1 and C8 of strand 2 (central CpG), two other CpGs unmethylated): 0.43 µM

- Kd [6]: 1.3 µM
- dH [6]: -8.92 kcal/mol
- stoichiometry N [6]: 1.1
Substance: HsMBD2 coiled-coil domain, uncleaved fusion peptide (from UniProt Q9UBB5 360-393) (domain or fragment)
